{
  "source": "the supplement of paper PMC11780869",
  "test_system": "Bacillus subtilis",
  "assay": "cleaved RNA product abundance (RNA/gDNA barcode ratio) relative to median wild-type variant (ratio to wild type); higher = more accumulation of the downstream cleavage product",
  "conditions": "experiment (reporter, strain, medium): exp 8a: truncated aprE reporter, strain BJT201 with 2% xylose (RNase J1 expressed); cleavage site: glnRA (positions -5 to +31 mutated)",
  "outline": "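Cleaved product abundance for each construct is its RNA-to-gDNA barcode ratio, scaled to the median construct carrying the unmutated site. Cleaved RNA was isolated on a gel, reverse transcribed and barcode-sequenced, with genomic DNA barcodes sequenced alongside and UMIs collapsed. The reporters were truncated aprE or tetM mRNAs with barcoded, mutagenized RNase Y cleavage-site windows integrated into the B. subtilis chromosome, and cultures grew in LB at 37°C from OD600 0.0003 to 0.3.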",
  "data": [
    {"sequence": "CGACATGTCCCGCTTCTTTCATTAATCCCTTATCAACTGTTTTGCTATATACATTTACCTTTTAAGAGGAGGAAT", "values": [
      {"measurement": "cleaved RNA product abundance", "result": 0.249}
    ]},
    {"sequence": "CGACATGTCCCGCTTCTTTCATTAATCCGAAAGCAACTGTTTTGCTATATACATTTACCTTTTAAGAGGAGGAAT", "values": [
      {"measurement": "cleaved RNA product abundance", "result": 0.39}
    ]},
    {"sequence": "CGACATGTCCCGCTTCTTTCATTAATCCGACAGCAACTGTTTTGCTATATACATTTACCTTTTAAGAGGAGGAAT", "values": [
      {"measurement": "cleaved RNA product abundance", "result": 0.335}
    ]},
    {"sequence": "CGACATGTCCCGCTTCTTTCATTAATCCGATAACAACTGTTTTGCTATATACATTTACCTTTTAAGAGGAGGAAT", "values": [
      {"measurement": "cleaved RNA product abundance", "result": 0.201}
    ]},
    {"sequence": "CGACATGTCCCGCTTCTTTCATTAATCCGATACCAACTGTTTTGCTATATACATTTACCTTTTAAGAGGAGGAAT", "values": [
      {"measurement": "cleaved RNA product abundance", "result": 0.304}
    ]},
    {"sequence": "CGACATGTCCCGCTTCTTTCATTAATCCGATAGAAACTGTTTTGCTATATACATTTACCTTTTAAGAGGAGGAAT", "values": [
      {"measurement": "cleaved RNA product abundance", "result": 0.302}
    ]},
    {"sequence": "CGACATGTCCCGCTTCTTTCATTAATCCGATAGCAAATGTTTTGCTATATACATTTACCTTTTAAGAGGAGGAAT", "values": [
      {"measurement": "cleaved RNA product abundance", "result": 0.41}
    ]},
    {"sequence": "CGACATGTCCCGCTTCTTTCATTAATCCGATAGCAACTCTTTTGCTATATACATTTACCTTTTAAGAGGAGGAAT", "values": [
      {"measurement": "cleaved RNA product abundance", "result": 0.19}
    ]},
    {"sequence": "CGACATGTCCCGCTTCTTTCATTAATCCGATAGCAACTGCTTTGCTATATACATTTACCTTTTAAGAGGAGGAAT", "values": [
      {"measurement": "cleaved RNA product abundance", "result": 0.492}
    ]},
    {"sequence": "CGACATGTCCCGCTTCTTTCATTAATCCGATAGCAACTGTTTAGCTATATACATTTACCTTTTAAGAGGAGGAAT", "values": [
      {"measurement": "cleaved RNA product abundance", "result": 0.822}
    ]},
    {"sequence": "CGACATGTCCCGCTTCTTTCATTAATCCGATAGCAACTGTTTTACTATATACATTTACCTTTTAAGAGGAGGAAT", "values": [
      {"measurement": "cleaved RNA product abundance", "result": 0.459}
    ]},
    {"sequence": "CGACATGTCCCGCTTCTTTCATTAATCCGATAGCAACTGTTTTCCTATATAAGCTTACCTTTTAAGAGGAGGAAT", "values": [
      {"measurement": "cleaved RNA product abundance", "result": 0.295}
    ]},
    {"sequence": "CGACATGTCCCGCTTCTTTCATTAATCCGATAGCAACTGTTTTGATATATACATTTACCTTTTAAGAGGAGGAAT", "values": [
      {"measurement": "cleaved RNA product abundance", "result": 0.325}
    ]},
    {"sequence": "CGACATGTCCCGCTTCTTTCATTAATCCGATAGCAACTGTTTTGCTAGATACATTTACCTTTTAAGAGGAGGAAT", "values": [
      {"measurement": "cleaved RNA product abundance", "result": 0.354}
    ]},
    {"sequence": "CGACATGTCCCGCTTCTTTCATTAATCCGATAGCAACTGTTTTGCTATATACATCTACCTTTTAAGAGGAGGAAT", "values": [
      {"measurement": "cleaved RNA product abundance", "result": 0.88}
    ]},
    {"sequence": "CGACATGTCCCGCTTCTTTCATTAATCCGATAGCAACTGTTTTGCTATATACATTGACCTTTTAAGAGGAGGAAT", "values": [
      {"measurement": "cleaved RNA product abundance", "result": 0.721}
    ]},
    {"sequence": "CGACATGTCCCGCTTCTTTCATTAATCCGATAGCAACTGTTTTGCTATATACATTTAACTTTTAAGAGGAGGAAT", "values": [
      {"measurement": "cleaved RNA product abundance", "result": 0.63}
    ]},
    {"sequence": "CGACATGTCCCGCTTCTTTCATTAATCCGATAGCAACTGTTTTGCTATATACATTTACCTTTTAAGAGGAGGAAT", "values": [
      {"measurement": "cleaved RNA product abundance", "result": 0.795}
    ]},
    {"sequence": "CGACATGTCCCGCTTCTTTCATTAATCCGATAGCAACTGTTTTGCTATATACATTTACTTTTTAAGAGGAGGAAT", "values": [
      {"measurement": "cleaved RNA product abundance", "result": 0.547}
    ]},
    {"sequence": "CGACATGTCCCGCTTCTTTCATTAATCCGATAGCAACTGTTTTGCTATATAGATTTACCTTTTAAGAGGAGGAAT", "values": [
      {"measurement": "cleaved RNA product abundance", "result": 1.02}
    ]},
    {"sequence": "CGACATGTCCCGCTTCTTTCATTAATCCGATAGCAACTGTTTTGCTATTTACATTTACCTTTTAAGAGGAGGAAT", "values": [
      {"measurement": "cleaved RNA product abundance", "result": 0.189}
    ]},
    {"sequence": "CGACATGTCCCGCTTCTTTCATTAATCCGATAGCAACTGTTTTGTTATATACATTTACCTTTTAAGAGGAGGAAT", "values": [
      {"measurement": "cleaved RNA product abundance", "result": 0.378}
    ]},
    {"sequence": "CGACATGTCCCGCTTCTTTCATTAATCCGATAGCAACTGTTTTTCTATATACATTTACCTTTTAAGAGGAGGAAT", "values": [
      {"measurement": "cleaved RNA product abundance", "result": 0.413}
    ]},
    {"sequence": "CGACATGTCCCGCTTCTTTCATTAATCCGATAGCAACTTTTTTGCTATATACATTTACCTTTTAAGAGGAGGAAT", "values": [
      {"measurement": "cleaved RNA product abundance", "result": 1.24}
    ]},
    {"sequence": "CGACATGTCCCGCTTCTTTCATTAATCCGATATCAACTGTTTTGCTATATACATTTACCTTTTAAGAGGAGGAAT", "values": [
      {"measurement": "cleaved RNA product abundance", "result": 0.242}
    ]},
    {"sequence": "CGACATGTCCCGCTTCTTTCATTAATCCGATCGCAACTGTTTTGCTAGATACATTTACCTTTTAAGAGGAGGAAT", "values": [
      {"measurement": "cleaved RNA product abundance", "result": 0.119}
    ]},
    {"sequence": "CGACATGTCCCGCTTCTTTCATTAATCCGATGGCAACTGTTTTGCTATATACATTTACCTTTTAAGAGGAGGAAT", "values": [
      {"measurement": "cleaved RNA product abundance", "result": 0.74}
    ]},
    {"sequence": "CGACATGTCCCGCTTCTTTCATTAATCCGATTGCAACTGTTTTGCTATATACATTTACCTTTTAAGAGGAGGAAT", "values": [
      {"measurement": "cleaved RNA product abundance", "result": 0.294}
    ]},
    {"sequence": "CGACATGTCCCGCTTCTTTCATTAATCCGCAGGCAACTGTTTTTCTAAATACAAATACCTTTTAAGAGGAGGAAT", "values": [
      {"measurement": "cleaved RNA product abundance", "result": 0.213}
    ]},
    {"sequence": "CGACATGTCCCGCTTCTTTCATTAATCCGCCAGCAACTGTTTTGCTATATAGATTTACCTTTTAAGAGGAGGAAT", "values": [
      {"measurement": "cleaved RNA product abundance", "result": 0.284}
    ]},
    {"sequence": "CGACATGTCCCGCTTCTTTCATTAATCCGCGAGCAACTGTTTTGCTATATACATTTACCTTTTAAGAGGAGGAAT", "values": [
      {"measurement": "cleaved RNA product abundance", "result": 0.318}
    ]},
    {"sequence": "CGACATGTCCCGCTTCTTTCATTAATCCGGTAACAACTGTTTTGCTATATACATTTACCTTTTAAGAGGAGGAAT", "values": [
      {"measurement": "cleaved RNA product abundance", "result": 0.34}
    ]},
    {"sequence": "CGACATGTCCCGCTTCTTTCATTAATCCGGTAGCAACTGTTATGCTATATACATTTACCTTTTAAGAGGAGGAAT", "values": [
      {"measurement": "cleaved RNA product abundance", "result": 1.02}
    ]}
  ]
}
